Experimental data taken from FireProtDB (doi:10.1111/j.1432-1033.1995.tb20713.x).

Conditions: Saccharomyces cerevisiae (strain ATCC 204508 / S288c), Fluorescence, reversible: yes, whole UniProt chain shown
[1] = pH 4.6, Thermal, Acetic acid-NaOH 30 mM
[2] = pH 7.5, 5.2 °C, GdnHCl, MOPS-NaOH 30 mM
[3] = pH 7.5, 10.2 °C, GdnHCl, MOPS-NaOH 30 mM
[4] = pH 7.5, 15.2 °C, GdnHCl, MOPS-NaOH 30 mM
[5] = pH 7.5, Thermal, MOPS-NaOH 30 mM

B1: Adenylate kinase wild type, P07170 (protein)
chain: MSSSESIRMVLIGPPGAGKGTQAPNLQERFHAAHLATGDMLRSQIAKGTQLGLEAKKIMDQGGLVSDDIMVNMIKDELTNNPACKNGFILDGFPRTIPQAEKLDQMLKEQGTPLEKAIELKVDDELLVARITGRLIHPASGRSYHKIFNPPKEDMKDDVTGEALVQRSDDNADALKKRLAAYHAQTEPIVDFYKKTGIWAGVDASQPPATVWADILNKLGKD
unfolding free energy (pH 4.6, 25 °C, Thermal, Acetic acid-NaOH 30 mM): 2.15 kcal/mol
Tm [1]: 48.6 °C
unfolding enthalpy (van 't Hoff) [1]: 57.4 kcal/mol
denaturant m value [2]: 5.28 kcal/mol/M
denaturant midpoint (higher = more stable) [2]: 0.76 M
unfolding free energy [2]: 3.97 kcal/mol
denaturant m value [3]: 6.98 kcal/mol/M
denaturant midpoint (higher = more stable) [3]: 0.7 M
unfolding free energy [3]: 4.9 kcal/mol
denaturant m value [4]: 7.29 kcal/mol/M
denaturant midpoint (higher = more stable) [4]: 0.75 M
unfolding free energy [4]: 5.47 kcal/mol
unfolding free energy (pH 7.5, 25 °C, Thermal, MOPS-NaOH 30 mM): 3.82 kcal/mol
Tm [5]: 47.7 °C
unfolding enthalpy (van 't Hoff) [5]: 81.3 kcal/mol
